23 sequences from the supplement of paper PMC9170038 can be followed below.

The series has as its system MS2 coat protein. Kind of series: apparent KD of MS2 coat protein; designed switch direction (-1 OFF switch, 1 ON switch): -1; higher = weaker reporter binding. The procedure, abridged:
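Designed RNA switches with common flanks were transcribed on Illumina chips by stalled E. coli RNA polymerase and titrated with SNAP-549-labelled MS2 coat protein, from 0.7 or 1.5 nM doubling to 3 µM, in Tris-HCl pH 7.5 buffer with KCl, MgCl2, BSA, DTT, tRNA and Tween-20. Steps lasted 0.8–1.5 h (lowest) to 10–20 min (highest). Titrations ran without input, with 200 uM small-molecule ligand, or with an oligonucleotide input. Normalised cluster fluorescence was curve-fitted, and apparent KD is the per-design median over clusters.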

The mark [1] stands for this setting: input ligand: microRNA oligo, concentration not stated.
The mark [2] stands for this setting: Eterna round: R95, input ligand: microRNA oligo, concentration not stated.
[3] abbreviates: Eterna round: R95, input ligand: FMN 200 uM.
[4] abbreviates: Eterna round: R95, input ligand: none.

Turning to “GAGAGAAUCUAGGAUAUAUCAAGAGAAGGAGAGAUAGAAGGAGAGACAUGAGGAUCACCCAUGUCUUCGUGUAG [Default title] (Eterna round: R97, puzzle: Exclusion 6)”, the “apparent KD of MS2 coat protein” value runs as follows: (input ligand: FMN 200 uM) 16.6 nM; (input ligand: none) 15.8 nM.

For “GAGAGGAGUGUAGGAUAUUUAAGGGAGGAGGAGGGAGAAGGACAUGAGGAUCACCCAUGUAGGAAGAGAGGAGGAGUACAGGAG [Default title] (Eterna round: R96, puzzle: Exclusion NG 1)”, the “apparent KD of MS2 coat protein” value by setting is: (input ligand: FMN 200 uM) 46.1 nM; under setting [1], 19.3 nM; (input ligand: none) 32.3 nM.

Take “GAGCCAUCGUGAGAUGGCUAAUAUACAUGAGGAUCACCCAUGUAGGAUAUCGAUUGCUUUGCAGUCGAGAAGGACAUGUUUAAU [JL ENG3 3.97] (Eterna round: R96, puzzle: Exclusion NG 3)”: the “apparent KD of MS2 coat protein” value (input ligand: FMN 200 uM) amounted to 67.4 nM, the “apparent KD of MS2 coat protein” value under setting [1] worked out at 26.7 nM and the “apparent KD of MS2 coat protein” value (input ligand: none) came to 33.7 nM.

Regarding “GAGGAACAUGAGGAUCACCCAUGUGAGGAUAUGCAUAGUGAGGUAGUAGAAGUUGAAUGCAGAAGGUACACUGA [JR_Exclu1_Sub077] (puzzle: Exclusion 1)”, the “apparent KD of MS2 coat protein” value under setting [2] stood at 39 nM.

Consider “GAGGGACAUGAGGAUCACCCAUGUGAGGAUAUGUGAGAAGGAUUGGAGAGAAAAGGAAACAGAAGGCGCGGGAG [JR_Exclu1_Sub086] (puzzle: Exclusion 1)”, for which the “apparent KD of MS2 coat protein” value was 59.5 nM under setting [3], 50.9 nM under setting [2] and 54.7 nM under setting [4].

In the case of “GAGGUGGGUUUUCAGAGUAACAUGAGGAUCACCCAUGUAGAAGUUGAAGGUAUCAAGCGAAUGGCUCGUCAAAUGUG [JR_SV3TOV1_Sub048] (puzzle: Sensor v3, turn-off variant 1)”, the “apparent KD of MS2 coat protein” value by setting is: under setting [3], 135 nM; under setting [2], 171 nM; under setting [4], 233 nM.

As for “GAGGUGUUAGGAUAUCGGAGAUGGAGAAGAACGGGAAGAGCCGAGAAGGAACAUGAGGAUCACCCAUGUAGGUG [JR_Exclu4_Sub030] (puzzle: Exclusion 4)”, the “apparent KD of MS2 coat protein” value came out at 326 nM under setting [3], 270 nM under setting [2] and 696 nM under setting [4].

For “GAGUACUGAGGAUAUACAUGAGGAUCACCCAUGUGUUCCAGCUAGGAAACUAGCAAAAGUAGAAGGCAGUACUG [salish99_ex3_r3_084] (Eterna round: R96, puzzle: Exclusion 3)”, the “apparent KD of MS2 coat protein” value was 311 nM (input ligand: FMN 200 uM), 19.3 nM under setting [1] and 23.2 nM (input ligand: none).

As to “GAGUACUGAGGAUAUACAUGAGGAUCACCCAUGUGUUCCAGCUAGGAAACUAGCAAAAGUAGAAGGCAGUACUG [salish99_ex3_r3_084] (puzzle: Exclusion 3)”, the “apparent KD of MS2 coat protein” value under setting [2] was found to be 18.9 nM.

Take “GAGUAGCUAGGAUAUCGAAAACAUCACAUGAGGAUCACCCAUGUGCCGGGUGCUCAGAUGCGAGAAGGAGCAAAGA [Reatququ] (puzzle: Exclusion 5)”: the “apparent KD of MS2 coat protein” value by setting is: under setting [3], 219 nM; under setting [2], 131 nM; under setting [4], 175 nM.

In the case of “GAGUAGUAAGGAUAUGUCUCUGGUGGCUACGGUCACUAGAGGCAGAAGGUACAUGAGGAUCACCCAUGUUUCUC [ExDelusion 9 - Jieux - Exclusion 4] (Eterna round: R97, puzzle: Exclusion 4)”, the “apparent KD of MS2 coat protein” value reads like this: (input ligand: FMN 200 uM) 83.1 nM; (input ligand: none) 39.2 nM.

“GAGUAGUGAGGAUAUGCAAUGAUCAUCGUACGAUGAGGCUGACAUGAGGAUCACCCAUGUAGAAGGCGCUGAUC [EX2 #18] (Eterna round: R97, puzzle: Exclusion 2)”: the “apparent KD of MS2 coat protein” value by setting is: (input ligand: FMN 200 uM) 57.3 nM; (input ligand: none) 75.2 nM.

For “GAGUGACAUGAGGAUCACCCAUGUGAGGAUAUGCGACGGACCAAAUUAACAAUAGAAGGCAGAAGGCGCAUAAA [Exclusion 1 V10] (puzzle: Exclusion 1)”, the “apparent KD of MS2 coat protein” value runs as follows: under setting [3], 26.9 nM; under setting [2], 33.1 nM; under setting [4], 31.1 nM.

In the case of “GAGUGAGCGUGAGGAAUAUACAUGAGGAUCACCCAUGUUUGCUAAUAUAUUGCUCGUCUUAUAACAACAAUUAACUG [Mod-hoo-honey#ab] (Eterna round: R97, puzzle: Sensor, turn-off variant 1)”, the “apparent KD of MS2 coat protein” value came to 12.6 nM (input ligand: FMN 200 uM) and 13.7 nM (input ligand: none).

“GAGUGCUGAGGAUAUACAUGAGGAUCACCCAUGUGCUUCAGCUAGGAGACUAGCUUUGGUAGAAGGCAGUACUC [Mod of lroppy 23 - Jieux - Exclusion 3] (Eterna round: R97, puzzle: Exclusion 3)”: the “apparent KD of MS2 coat protein” value by setting is: (input ligand: FMN 200 uM) 49.4 nM; (input ligand: none) 14.2 nM.

Take “GAGUUAACAUGAGGAAUAUACAUGAGGAUCACCCAUGUUAACAAAUUUAUUGCUCGUCUUAUAACAACAAUUAACUC [Alarm 5 - Jieux - Sensor, turn-off variant 1] (Eterna round: R97, puzzle: Sensor, turn-off variant 1)”: the “apparent KD of MS2 coat protein” value reads like this: (input ligand: FMN 200 uM) 105 nM; (input ligand: none) 111 nM.

As to “GAGUUAACGUGAGGAAUAUACAUGAGGAUCACCCAUGUUAACAAAUUUAUUGCUCGUCUUAUAACAACAAUUAACUC [Alarm 6 - Jieux - Sensor, turn-off variant 1] (Eterna round: R97, puzzle: Sensor, turn-off variant 1)”, the “apparent KD of MS2 coat protein” value was found to be 23 nM (input ligand: FMN 200 uM) and 27.7 nM (input ligand: none).

Take “GAGUUACAUGAGGAUCACCCAUGUGAGGAUAUGAGUCAGUCACGGUGACGUGGCUGACUCAGAAGGCACAAUGG [Mat - Exclusion 1 - JL Mod - D46] (Eterna round: R97, puzzle: Exclusion 1)”: the “apparent KD of MS2 coat protein” value is, setting by setting: (input ligand: FMN 200 uM) 256 nM; (input ligand: none) 380 nM.

For “GAUAAGGUAGGAUAUACGAAUAAAAAGGGUAGAAGAAGAACACAUGAGGAUCACCCAUGUAGAAGGACCAAGAG [Mat - Exclusion 2 - Mod of my Tesla design - D23] (puzzle: Exclusion 2)”, the “apparent KD of MS2 coat protein” value by setting is: under setting [3], 43 nM; under setting [2], 20.6 nM; under setting [4], 19.6 nM.

For “GAUAGGGCAGGAUAUCGAGAUCCGCACAUGAGGAUCACCCAUGUUCGGUCGAAAGACCGACGAGAAGGGCCGUAUC [Omei Ex5 E6] (Eterna round: R97, puzzle: Exclusion 5)”, the “apparent KD of MS2 coat protein” value runs as follows: (input ligand: FMN 200 uM) 698 nM; (input ligand: none) 536 nM.

“GAUCAACAUGAGGAUCACCCAUGUGAGGAUAUGAUACUAUGUACUUCGGUACAUAGUAUCAGAAGGCACAUAAA [Ex1-3: 38] (puzzle: Exclusion 1)”: the “apparent KD of MS2 coat protein” value under setting [2] worked out at 72.4 nM.

As for “GAUCAUGCAGGAUAUACAUGAACCAUGAAAACAUGGUUUUCACAUGAGGAUCACCCAUGUAGAAGGGCAUGAUC [Omei Ex2 A7] (Eterna round: R97, puzzle: Exclusion 2)”, the “apparent KD of MS2 coat protein” value reads like this: (input ligand: FMN 200 uM) 183 nM; (input ligand: none) 56.7 nM.

With “GAUCAUGCAGGAUAUACAUGGAACAUGUAAACAUGAAUUUCACAUGAGGAUCACCCAUGUAGAAGGGCAUGAUC [Omei Ex2 A13] (Eterna round: R97, puzzle: Exclusion 2)”, the “apparent KD of MS2 coat protein” value is 314 nM (input ligand: FMN 200 uM) and 2200 nM (input ligand: none).
